Laboratory results as given in US20230293578A1, “TREATMENT OF BACTERIAL VAGINOSIS” (priority 2020, published 2023).

Tests used:
G. vag strain 14.2 = test: antibiotic synergy testing, checkerboard cross dilution method in broth cultures; assay type: cell-based, Gardnerella vaginalis; settings: 4 mg/mL bLF, 24 hr
[1] = in vivo
Excerpt: Zinc levels in vaginal fluid of BV have also been measured. Recommended zinc levels for bacterial growth are not readily available as zinc toxicity is low and the capacity of bacteria to store zinc is high, thus contributing to a very wide range of acceptable zinc levels that will support bacterial growth. […] Furthermore, in an L. iners based microbiome that has not progressed to full blown BV, a significant increase in calprotectin is also seen. Thus, when an altered microbiome takes hold, the body appears to be an active conspirator in discouraging L. Crispatus-type re-growth.
The remainder is expelled. This means that free iron is released from a dose of bovine lactoferrin that is partially saturated with iron and may become accessible to bacteria. Even if the released iron is immediately bound by the remaining lactoferrin, this proteolysis will inevitably increase the overall saturation percentage of the remaining bovine lactoferrin. In turn, it will also increase the saturation of human lactoferrin, since bovine and human forms exist in relative equilibrium considering that their bindings constants are similar. It also follows, that lowering the initial iron saturation of bovine lactoferrin will lower human lactoferrin's iron saturation levels and thus provide the least access to the bacterial binding proteins that scavenge iron from human lactoferrin. […]

Gardnerella vaginalis = test: G. vaginalis growth in liquid culture, viability as CFU
Description: G. vag isolates were recovered from the vaginal discharge of BV positive patients and identification at the species level was performed by species-specific PCR using the primer pairs G. vaginalis V2-R1 and G. vaginalis V6-U2.
Cells were grown in aerobic conditions at 37° C. at 5% CO2 in PMD medium. PMD medium contains: proteose peptone No. 3 (BD211693) 15 g/L, maltone 2 g/L, dextrose 1 g/L, Na2HPO2 1 g/L, NaH2PO4 1 g/L adjusted to pH6.8. High Iron PMD medium additional contains 500 mg/L human hemoglobin. No Iron PMD is prepare by treating PMD medium with Chelex® 100 Chelating Resin (Bio-Rad Cat #1432832) then adding back 0.1 mM magnesium sulfate, 0.1 mM calcium chloride, and 10 μM zinc chloride. Low Iron PMD medium is prepared by adding 10 μM ferric ammonium citrate (FAC) to No Iron PMD. Overnight broth cultures of G. vaginalis were grown in High Iron PMD, centrifuged, resuspended No Iron PMD, incubated for 2 hr at 37° C. then diluted to 2.5×10^7 cells/mL in Low Iron PMD. Cells were grown in liquid culture for 24-48 hr then plated on agar to assess viability (expressed as colony forming units per mL (CFU)). Bulk bLF was dissolved in water and diluted in culture medium.

B1: bovine lactoferrin (protein, UniProt P24627 20-708, looked up)
Lactotransferrin: APRKNVRWCTISQPEWFKCRRWQWRMKKLGAPSITCVRRAFALECIRAIAEKKADAVTLDGGMVFEAGRDPYKLRPVAAEIYGTKESPQTHYYAVAVVKKGSNFQLDQLQGRKSCHTGLGRSAGWIIPMGILRPYLSWTESLEPLQGAVAKFFSASCVPCIDRQAYPNLCQLCKGEGENQCACSSREPYFGYSGAFKCLQDGAGDVAFVKETTVFENLPEKADRDQYELLCLNNSRAPVDAFKECHLAQVPSHAVVARSVDGKEDLIWKLLSKAQEKFGKNKSRSFQLFGSPPGQRDLLFKDSALGFLRIPSKVDSALYLGSRYLTTLKNLRETAEEVKARYTRVVWCAVGPEEQKKCQQWSQQSGQNVTCATASTTDDCIVLVLKGEADALNLDGGYIYTAGKCGLVPVLAENRKSSKHSSLDCVLRPTEGYLAVAVVKKANEGLTWNSLKDKKSCHTAVDRTAGWNIPMGLIVNQTGSCAFDEFFSQSCAPGADPKSRLCALCAGDDQGLDKCVPNSKEKYYGYTGAFRCLAEDVGDVAFVKNDTVWENTNGESTADWAKNLNREDFRLLCLDGTRKPVTEAQSCHLAVAPNHAVVSRSDRAAHVKQVLLHQQALFGKNGKNCPDKFCLFKSETKNLLFNDNTECLAKLGGRPTYEEYLGTEYVTAIANLKKCSTSPLLEACAFLTR
notes: bulk bLF dissolved in water for in vitro tests
- growth inhibited (G. vag strain 14.2): 19.3%
- share of a vaginal dose broken down via vaginal or bacterial proteases [1]: ≤ 20%
- concentration range of dose-dependent inhibition of G. vag growth (Gardnerella vaginalis; G. vag isolate 14.2, Low Iron PMD, FIG. 2): 0.5 to 32 mg/mL
- effect on G. vaginalis growth (Gardnerella vaginalis; iron-containing bovine lactoferrin preparation): growth suppression
